“And” between values parts separate entries of the source, which are not always exact repeats. Equal entries are not always repeated. Residues, ends and D or L forms follow the SMILES beside them. *: point of attachment. X1 = CC1(C)C(/C=C/C=C/C=C/C=C2/N(CCCCCC(=O)NCCN3C(=O)CC(*)C3=O)c3ccc4ccccc4c3C2(C)C)=[N+](CCCCS(=O)(=O)[O-])c2ccc3ccccc3c21
Assay: Blood clearance of ICG-pHLIP after single tail vein injection
Assay type: in vivo, mouse
Conditions: for Concentration in blood, Mean ± St. D.: 5 animals; for Concentration in blood, Mean ± St. D. / Concentration in blood: 2.5 nmol tail vein; for Concentration in blood: individual animal, listed as ICG-Var3
Method: BALB/cAcNHsd mice ranging in age from 5 to 6 weeks obtained from Envigo RMS Inc were used in the study. Mouse mammary 4T1 cancer cells were subcutaneously implanted in the right flank (8×10^5 cells/0.1 mL/flank) of adult female mice. Triple negative 4T1 tumor model closely mimics stage IV of human breast cancer. When tumors reached 5-6 mm in diameter, single tail vein injections of 2.5 nmol (or 0.5 mg/kg) of ICG-pHLIP in sterile PBS with 5% DMSO or 5% Ethanol (volume of the injection was 100 μl) were performed. The whole body and ex vivo imaging was performed using a Stryker 1588 AIM clinical imaging system with L10 AIM Light Source, 1588 AIM Camera using a 10 mm or 5 mm scope.
Animals were euthanized at time points: 5 min, 1 hr, 2 hrs, 4 hrs, 6 hrs, 16 hrs, 26 hrs and 48 hrs. […] 100 μl of blood was collected immediately after euthanasia and mixed with 12.5 μl of citrate-dextrose anticoagulant solution (kept at 4° C.), and necropsy was performed. Tumor, muscles, skin, heart, lungs, liver, spleen, kidneys, brain, pancreas, bone, stomach, small and large intestines were collected, imaged immediately after collection, weighed, and fast frozen in liquid nitrogen.
Blood samples mixed with of anti-coagulant solution were placed in 384 well plates (MatTek, glass bottom) (15 μL per well) and imaged on an Odyssey IR scanner (Li-Cor Biosciences). […] The same amounts (15 μL) of blood samples were placed in 384 well plate and imaged together with all other blood samples. The digital images were processed using the Image J program to calculate mean fluorescence intensity. The calibration curve (known concentration of ICG-pHLIP in blood samples vs intensity) was constructed to calculate the amount of ICG-pHLIP in blood samples collected from the mice at different times after construct administration.

CC(C)C[C@H](NC(=O)[C@H](Cc1ccc(O)cc1)NC(=O)[C@H](C)NC(=O)[C@H](CCCNC(=N)N)NC(=O)[C@H](Cc1c[nH]c2ccccc12)NC(=O)[C@@H]1CCCN1C(=O)[C@H](CC(N)=O)NC(=O)[C@H](CCC(N)=O)NC(=O)[C@H](CC(=O)O)NC(=O)[C@H](CC(=O)O)NC(=O)[C@H](CSC1CC(=O)N(CCNC(=O)CCCCCN2/C(=C/C=C/C=C/C=C/C3=[N+](CCCCS(=O)(=O)[O-])c4ccc5ccccc5c4C3(C)C)C(C)(C)c3c2ccc2ccccc32)C1=O)NC(=O)[C@H](C)N)C(=O)N[C@@H](CC(=O)O)C(=O)N[C@@H](CC(C)C)C(=O)N[C@@H](CC(C)C)C(=O)N[C@@H](Cc1ccccc1)C(=O)N1CCC[C@H]1C(=O)N[C@H](C(=O)N[C@@H](CC(=O)O)C(=O)N[C@H](C(=O)N[C@@H](CC(C)C)C(=O)N[C@@H](CC(C)C)C(=O)N[C@@H](CC(C)C)C(=O)N[C@@H](CC(=O)O)C(=O)N[C@@H](CC(C)C)C(=O)N[C@@H](CC(C)C)C(=O)N[C@@H](Cc1c[nH]c2ccccc12)C(=O)N[C@@H](C)C(=O)O)[C@@H](C)O)[C@@H](C)O (some centres unmarked) [ICG-pHLIP] (H-AC(X1)DDQNPWRAYLDLLFPTDTLLLDLLWA-OH)
Concentration in blood, Mean ± St. D. (5 min p.i.): 2.28 ± 0.23 nmol
Concentration in blood (5 min p.i.): 2.56 nmol and 2.09 nmol and 2.47 nmol and 2.02 nmol and 2.24 nmol
Concentration in blood, Mean ± St. D. (1 hour p.i.): 1.25 ± 0.35 nmol
Concentration in blood (1 hour p.i.): 1.40 nmol and 1.31 nmol and 1.73 nmol and 0.93 nmol and 0.88 nmol
Concentration in blood, Mean ± St. D. (2 hours p.i.): 0.59 ± 0.15 nmol
Concentration in blood (2 hours p.i.): 0.64 nmol and 0.40 nmol and 0.67 nmol and 0.47 nmol and 0.76 nmol
Concentration in blood, Mean ± St. D. (4 hours p.i.): 0.51 ± 0.07 nmol
Concentration in blood (4 hours p.i.): 0.41 nmol and 0.49 nmol and 0.57 nmol (2×) and 0.48 nmol
Concentration in blood, Mean ± St. D. (6 hours p.i.): 0.38 ± 0.06 nmol
Concentration in blood (6 hours p.i.): 0.41 nmol and 0.38 nmol and 0.32 nmol and 0.35 nmol and 0.46 nmol
Concentration in blood, Mean ± St. D. (16 hours p.i.): 0.12 ± 0.03 nmol
Concentration in blood (16 hours p.i.): 0.11 nmol and 0.13 nmol and 0.10 nmol and 0.16 nmol and 0.08 nmol
Concentration in blood, Mean ± St. D. (26 hours p.i.): 0.02 ± 0.01 nmol
Concentration in blood (26 hours p.i.): 0.02 nmol (3×) and 0.03 nmol (2×)
half-life (female, BALB/cAcNHsd, mouse, whole blood, intravenous, 0.5 mg/kg, two-phase kinetics, read-out: characteristic half lifetime of blood clearance, first phase (converted)): 36 min
characteristic time for complete clearance of the blood, second phase (two-phase kinetics): 7.5 h
signal drop in first phase of blood clearance (two-phase kinetics): 66%

Reference: US20180369425A1, “LINKED AND OTHER pH-TRIGGERED COMPOUNDS” (priority 2017, published 2018)
